Consider one molecule from article PMC10873877.

For this data set, the target named is His-AvrXa27 (Xanthomonas oryzae pv. oryzae, UniProt Q4QS99 1-1136). Kind of data set: EMSA; […]; buffer, […], pH and temperature not stated. The following applies: protein: recombinant; tags: His (pET-30a); label: Cy5; blunt. A general note: A gel shift assay detects complexes by their altered migration in electrophoresis.

B1: Xa13p-14 (dsDNA)
DNA 1: ATCTCCCCCTACTCTACAT
DNA 2: ATGTAGAGTAGGGGGAGAT
Consider B1, for which the binding result is “no binding”.
